Here are results for three molecules from paper PMC9527255, “Structure of the TnsB transposase-DNA complex of type V-K CRISPR-associated transposon”.

The target of series [1] is Scytonema hofmannii TnsB transposase (type V-K CRISPR-associated transposon) (Scytonema hofmannii (UTEX 2349)). Put plainly: cryo-EM structure; 40 uM shTnsB with 10 uM STC DNA in 50 mM HEPES pH 7.5, 300 mM NaCl, 5 mM MgCl2, 1 mM TCEP, 30 min at 37 C; post-catalytic strand-transfer complex, 2.46 A.
The target is the same in series [2]. Put plainly: SEC-MALS; shTnsB mixed with the reconstituted strand-transfer complex (STC) DNA; the high MW peak at 358.7 kDa holds the STC DNA and shTnsB. (SEC sorts molecules by how far they enter the pores of the column.)
Series [3] has as its target T1, shTnsB (Scytonema hofmannii UTEX 2349, UniProt PDB:8AA5_1 1-596).
T1 sequence: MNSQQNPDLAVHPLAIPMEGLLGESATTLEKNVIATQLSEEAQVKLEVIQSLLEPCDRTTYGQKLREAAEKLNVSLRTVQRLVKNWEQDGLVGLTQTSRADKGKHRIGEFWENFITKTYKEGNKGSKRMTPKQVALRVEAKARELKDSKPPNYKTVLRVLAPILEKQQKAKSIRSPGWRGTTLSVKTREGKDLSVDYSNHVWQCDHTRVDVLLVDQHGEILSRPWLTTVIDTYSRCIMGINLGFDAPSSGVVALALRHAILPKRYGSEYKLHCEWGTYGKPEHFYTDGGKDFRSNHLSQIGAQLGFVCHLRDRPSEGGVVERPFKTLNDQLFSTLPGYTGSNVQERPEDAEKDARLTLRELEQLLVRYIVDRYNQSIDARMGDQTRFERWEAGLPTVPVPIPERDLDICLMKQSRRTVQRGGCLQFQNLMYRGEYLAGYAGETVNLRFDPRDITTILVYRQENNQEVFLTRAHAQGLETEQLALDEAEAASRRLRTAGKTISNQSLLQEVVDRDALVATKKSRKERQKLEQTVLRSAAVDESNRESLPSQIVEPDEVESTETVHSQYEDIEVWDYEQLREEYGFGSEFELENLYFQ
Kind of series: cryo-EM structure (2.4 Å); 5 mM MgCl2; TnsB tetramer; 50 mM HEPES pH 7.5, 300 mM NaCl, 5 mM MgCl2, 1 mM TCEP, 37 °C, 30 min; 6% DNA retardation gel. The conditions noted are these: protein: recombinant; tags: C-terminal His6 (TEV treatment, tag removed); chain copies: 4; six strands: 1:2 1:3 (RE arm), 4:5 4:6 (LE arm); the arms pair through the 5 nt target between the insertion sites (1:4); 5' polyA overhangs on strands 2 and 5.

The target in series [4] is T1, shTnsB. Kind of series: EMSA; 5 mM MgCl2; four bands, three sites expected; 50 mM HEPES pH 7.5, 300 mM NaCl, 5 mM MgCl2, 1 mM TCEP, 37 °C, 30 min; 6% DNA retardation gel. The following applies: protein: recombinant; tags: C-terminal His6 (TEV treatment, tag removed); chain copies: 4; blunt.

Take “Scytonema hofmannii TnsB transposase (type V-K CRISPR-associated transposon) (enzyme)”: the stoichiometry N in series [1] and in series [2] was 4 throughout.

B1: STC DNA (RE_Target, RE_polyA, Target_1, LE_Target, LE_polyA, Target_2) (structured_DNA)
DNA 1: ATAAGGATTTTACTGATGACAATAATTTGTCACAACGACATATAATTAGTCACTGTACACGTAGAGACGTAGCAATGCT
DNA 2: AAAAAAAAAAAAAAATGTACAGTGACTAATTATATGTCGTTGTGACAAATTATTGTCATCAGTAAAATCCTTAT
DNA 3: AGCATTGCTACGTCT
DNA 4: AATTAAATAGTCACAATGACATTAATCTGTCACCGACGACAGATAATTTGTCACTGTACACTACGCCTTTTGTGGAGATG
DNA 5: AAAAAAAAAAAAAAATGTACAGTGACAAATTATCTGTCGTCGGTGACAGATTAATGTCATTGTGACTATTTAATT
DNA 6: CATCTCCACAAAAGG
For the molecule B1, in the series with shTnsB [3], the binding result is “binds”.

B2: LE (dsDNA)
DNA 1: ATTATATTGATGACATTTAATTTGTCATCAATTAATTAAGCAACGCTGATGGGTCACGACGACAATTAAATAGTCACAATGACATTAATCTGTCACCGACGACAGATAATTTGTCACTGTACACTACGCCTTTTGTGG
DNA 2: CCACAAAAGGCGTAGTGTACAGTGACAAATTATCTGTCGTCGGTGACAGATTAATGTCATTGTGACTATTTAATTGTCGTCGTGACCCATCAGCGTTGCTTAATTAATTGATGACAAATTAAATGTCATCAATATAAT
Take B2: in the series with shTnsB [4], the binding result is “binds”.
